{"source": "paper PMC10140023", "about": "(2023)", "key": {"GFP-FBXW7α": {"target": "GFP-FBXW7α (human, UniProt Q969H0 1-707)", "sequence (Q969H0 whole entry)": "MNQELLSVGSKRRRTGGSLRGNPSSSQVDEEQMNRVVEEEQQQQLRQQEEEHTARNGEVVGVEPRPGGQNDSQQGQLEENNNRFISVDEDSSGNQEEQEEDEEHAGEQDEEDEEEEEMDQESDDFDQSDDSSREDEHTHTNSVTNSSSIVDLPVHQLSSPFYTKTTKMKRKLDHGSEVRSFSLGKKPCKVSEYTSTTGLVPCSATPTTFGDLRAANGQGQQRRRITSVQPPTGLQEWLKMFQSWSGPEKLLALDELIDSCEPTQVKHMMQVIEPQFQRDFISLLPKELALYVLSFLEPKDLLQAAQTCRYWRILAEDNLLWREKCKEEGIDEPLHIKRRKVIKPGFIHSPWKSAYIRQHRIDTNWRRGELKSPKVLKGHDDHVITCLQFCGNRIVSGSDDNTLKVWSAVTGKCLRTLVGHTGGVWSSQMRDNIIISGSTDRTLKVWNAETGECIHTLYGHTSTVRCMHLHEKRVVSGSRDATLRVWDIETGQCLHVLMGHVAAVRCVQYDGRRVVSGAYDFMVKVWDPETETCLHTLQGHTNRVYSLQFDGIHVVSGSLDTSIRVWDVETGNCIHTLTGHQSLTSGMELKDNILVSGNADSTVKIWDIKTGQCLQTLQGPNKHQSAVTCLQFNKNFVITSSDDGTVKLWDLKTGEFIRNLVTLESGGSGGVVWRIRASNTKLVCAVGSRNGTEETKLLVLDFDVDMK", "assay": "MST"}, "GFP-POLD1": {"target": "T1, GFP-POLD1 (human, UniProt P28340 1-1107)", "T1 chain": "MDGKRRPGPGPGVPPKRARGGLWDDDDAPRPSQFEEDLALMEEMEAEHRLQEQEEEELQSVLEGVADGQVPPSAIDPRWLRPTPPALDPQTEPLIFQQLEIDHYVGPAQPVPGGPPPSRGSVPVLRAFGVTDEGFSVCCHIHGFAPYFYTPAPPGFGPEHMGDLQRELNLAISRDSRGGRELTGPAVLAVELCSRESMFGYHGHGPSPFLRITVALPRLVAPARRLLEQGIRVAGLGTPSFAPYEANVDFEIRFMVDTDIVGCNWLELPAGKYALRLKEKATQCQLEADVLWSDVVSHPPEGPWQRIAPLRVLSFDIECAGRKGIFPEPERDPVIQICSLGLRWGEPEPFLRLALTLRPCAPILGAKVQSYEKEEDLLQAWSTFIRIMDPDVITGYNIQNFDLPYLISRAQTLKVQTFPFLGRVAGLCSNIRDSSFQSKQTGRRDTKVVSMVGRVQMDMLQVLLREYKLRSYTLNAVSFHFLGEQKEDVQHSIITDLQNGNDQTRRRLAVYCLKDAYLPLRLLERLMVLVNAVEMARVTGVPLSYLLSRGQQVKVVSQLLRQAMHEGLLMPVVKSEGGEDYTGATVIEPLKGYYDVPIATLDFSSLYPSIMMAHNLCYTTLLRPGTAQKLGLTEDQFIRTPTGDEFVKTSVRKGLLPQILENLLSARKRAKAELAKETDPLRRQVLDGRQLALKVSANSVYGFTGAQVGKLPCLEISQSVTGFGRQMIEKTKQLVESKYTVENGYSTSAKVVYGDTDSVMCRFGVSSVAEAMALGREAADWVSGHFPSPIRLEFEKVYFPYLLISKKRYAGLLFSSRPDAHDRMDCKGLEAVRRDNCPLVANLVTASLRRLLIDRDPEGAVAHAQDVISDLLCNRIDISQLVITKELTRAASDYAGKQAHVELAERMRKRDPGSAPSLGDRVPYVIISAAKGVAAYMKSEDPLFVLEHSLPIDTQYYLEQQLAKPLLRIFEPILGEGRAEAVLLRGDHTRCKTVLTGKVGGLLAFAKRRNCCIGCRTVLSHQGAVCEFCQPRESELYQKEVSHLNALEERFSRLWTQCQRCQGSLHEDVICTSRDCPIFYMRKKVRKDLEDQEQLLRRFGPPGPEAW", "assay": "MST"}}}
{"binder": "APSEDIWKKFELLPAPPLSP", "note": "[MB1-T58A peptide]", "values": [{"measurement": "Kd", "setting": "GFP-FBXW7α", "value": 2160, "unit": "µM"}, {"measurement": "Kd", "setting": "GFP-POLD1", "value": 49.9, "unit": "µM"}]}
{"binder": "APSEDIWKKFELLPDPPLSP", "note": "[MB1-T58D peptide]", "values": [{"measurement": "Kd", "setting": "GFP-FBXW7α", "value": 110, "unit": "µM"}, {"measurement": "Kd", "setting": "GFP-POLD1", "value": 30.8, "unit": "µM"}]}
{"binder": "APSEDIWKKFELLPTPPLSP", "note": "[MYC-MB1 (WT) peptide]", "values": [{"measurement": "Kd", "setting": "GFP-FBXW7α", "value": 700, "unit": "µM"}, {"measurement": "Kd", "setting": "GFP-POLD1", "value": 34.5, "unit": "µM"}]}
